Among the targets are HLA-A*68:01; HLA-A*03:01; HLA-A*31:01; HLA-A*11:01; HLA-A*33:01.
What all share (assay): IEDB peptide-MHC binding, purified MHC/competitive/radioactivity; filed as Kd, often an IC50 or EC50 that approximates it; ≥ and ≤ were set here for values at or beyond the usual limits of such assays
Where [1] appears, read: source organism: Mammarenavirus lassaense.
[2] abbreviates: source organism: Vaccinia virus WR.
Where [3] appears, read: source organism: Mammarenavirus juninense.
Setting [4] is: source organism: SARS coronavirus Tor2.

A value given as a limit tells only on which side of the number the result lay.

As for ICKMPLPTR, the Kd is 16100 nM with HLA-A*68:01 (setting [1]); at least 40300 nM with HLA-A*03:01 (setting [1]); 36.8 nM with HLA-A*31:01 (setting [1]); 6030 nM with HLA-A*11:01 (setting [1]); 775 nM in the assay with HLA-A*33:01 (setting [1]).
As to EIKAEMQLK, the Kd in the assay with HLA-A*68:01 (setting [2]) was 15.7 nM; with HLA-A*03:01 (setting [2]), 1020 nM; with HLA-A*31:01 (setting [2]), at least 43900 nM; with HLA-A*11:01 (setting [2]), 1670 nM; in the assay with HLA-A*33:01 (setting [2]) it was 1520 nM.
The matching figures for ESNIEIMDK: 11.2 nM, 15500 nM, at least 77900 nM, 10800 nM and at least 77700 nM.
In the case of SWPLQCPLDH, the Kd is at least 70100 nM in the assay with HLA-A*68:01 (setting [3]); at least 70000 nM with HLA-A*03:01 (setting [3]); at least 22800 nM with HLA-A*31:01 (setting [3]); at least 69700 nM with HLA-A*11:01 (setting [3]); at least 38500 nM with HLA-A*33:01 (setting [3]).
Consider NMKQCTNDIY, for which the Kd with HLA-A*68:01 (setting [2]) was 2780 nM; with HLA-A*03:01 (setting [2]) it was 211 nM; with HLA-A*31:01 (setting [2]), at least 57400 nM; in the assay with HLA-A*11:01 (setting [2]) it was 16400 nM; with HLA-A*33:01 (setting [2]), at least 65700 nM.
The matching figures for RARFIGGYIK: 92.9 nM, 629 nM, 59.4 nM, 16.8 nM and 11700 nM.
With YIRRNMINK, the Kd with HLA-A*68:01 (setting [2]) is 168 nM; with HLA-A*03:01 (setting [2]), 10.6 nM; in the assay with HLA-A*31:01 (setting [2]), 2370 nM; with HLA-A*11:01 (setting [2]), 568 nM; with HLA-A*33:01 (setting [2]), at least 21300 nM.
Take KTNSTVDVR: the Kd with HLA-A*68:01 (setting [2]) came out at 19.9 nM; in the assay with HLA-A*03:01 (setting [2]), 1880 nM; with HLA-A*31:01 (setting [2]) it was 11 nM; with HLA-A*11:01 (setting [2]) it was 88.1 nM; with HLA-A*33:01 (setting [2]), 13300 nM.
The matching figures for IIGHIGHHY: at least 23100 nM, 6390 nM, at least 77900 nM, 4620 nM and at least 77700 nM.
Consider GMLIYSMWGK, for which the Kd worked out at 54.6 nM with HLA-A*68:01 (setting [2]); 8.57 nM in the assay with HLA-A*03:01 (setting [2]); 271 nM with HLA-A*31:01 (setting [2]); 17.5 nM with HLA-A*11:01 (setting [2]); 9910 nM with HLA-A*33:01 (setting [2]).
Turning to VQMLSDTLK, the Kd with HLA-A*68:01 (setting [4]) was 2480 nM; in the assay with HLA-A*03:01 (setting [4]) it was 74.3 nM; in the assay with HLA-A*31:01 (setting [4]), 413 nM; in the assay with HLA-A*11:01 (setting [4]) it was 18.7 nM; with HLA-A*33:01 (setting [4]), at least 77700 nM.
Consider TMADLVYALR, for which the Kd with HLA-A*68:01 (setting [4]) was 9.4 nM; with HLA-A*03:01 (setting [4]) it was 2250 nM; with HLA-A*31:01 (setting [4]), 81.3 nM; in the assay with HLA-A*11:01 (setting [4]) it was 898 nM; in the assay with HLA-A*33:01 (setting [4]) it was 136 nM.
For YTCEDNTGIK, the Kd with HLA-A*68:01 (setting [2]) was 256 nM; with HLA-A*03:01 (setting [2]), at least 29700 nM; in the assay with HLA-A*31:01 (setting [2]), at least 70000 nM; with HLA-A*11:01 (setting [2]) it was 1060 nM; with HLA-A*33:01 (setting [2]) it was at least 70000 nM.
With FIRIIRPDY, the Kd in the assay with HLA-A*68:01 (setting [2]) is 3090 nM; with HLA-A*03:01 (setting [2]) it was at least 78000 nM; in the assay with HLA-A*31:01 (setting [2]) it was 7050 nM; in the assay with HLA-A*11:01 (setting [2]) it was at least 56200 nM; with HLA-A*33:01 (setting [2]), at least 24700 nM.
The matching figures for FMRFFQLLR: 11.7 nM, 141 nM, 0.668 nM, 354 nM and 1.97 nM.
Take SSIDVDKRTK: the Kd with HLA-A*68:01 (setting [2]) came to 19.1 nM; with HLA-A*03:01 (setting [2]) it was 493 nM; with HLA-A*31:01 (setting [2]), 752 nM; in the assay with HLA-A*11:01 (setting [2]), 0.841 nM; in the assay with HLA-A*33:01 (setting [2]) it was 8970 nM.
As for EFVMCLEAK, the Kd in the assay with HLA-A*68:01 (setting [2]) was 267 nM; with HLA-A*03:01 (setting [2]) it was at least 54200 nM; with HLA-A*31:01 (setting [2]), 9760 nM; with HLA-A*11:01 (setting [2]), 965 nM; with HLA-A*33:01 (setting [2]) it was 153 nM.
Regarding NVAYNVVNK, the Kd with HLA-A*68:01 (setting [4]) amounted to 30.8 nM; with HLA-A*03:01 (setting [4]), 469 nM; in the assay with HLA-A*31:01 (setting [4]), 7170 nM; in the assay with HLA-A*11:01 (setting [4]), 121 nM; with HLA-A*33:01 (setting [4]), 19300 nM.
As for DFIRRKYLIY, the Kd was 1100 nM with HLA-A*68:01 (setting [2]); 8650 nM with HLA-A*03:01 (setting [2]); at least 70000 nM in the assay with HLA-A*31:01 (setting [2]); at least 20200 nM with HLA-A*11:01 (setting [2]); 10400 nM with HLA-A*33:01 (setting [2]).
The matching figures for QQLEDIFMR: 5480 nM, 2710 nM, 1190 nM, 13400 nM and 4070 nM.
The matching figures for SADNHPKMIK: 15.1 nM, 16.7 nM, 33.7 nM, 2.04 nM and 144 nM.
The matching figures for GSIKIKQDVR: 253 nM, 8060 nM, 281 nM, 611 nM and 2480 nM.
With DVRDKRRKY, the Kd is at least 53800 nM with HLA-A*68:01 (setting [2]); at least 28900 nM with HLA-A*03:01 (setting [2]); at least 77900 nM with HLA-A*31:01 (setting [2]); at least 77900 nM in the assay with HLA-A*11:01 (setting [2]); at least 77700 nM with HLA-A*33:01 (setting [2]).
Turning to FLLRHYYNKR, the Kd with HLA-A*68:01 (setting [2]) came to 1850 nM; in the assay with HLA-A*03:01 (setting [2]), 1840 nM; with HLA-A*31:01 (setting [2]), 16.2 nM; with HLA-A*11:01 (setting [2]) it was 1130 nM; with HLA-A*33:01 (setting [2]) it was 17.4 nM.
IILAALFMY: the Kd was at least 55700 nM with HLA-A*68:01 (setting [2]); 20.5 nM with HLA-A*03:01 (setting [2]); 11400 nM with HLA-A*31:01 (setting [2]); 0.307 nM in the assay with HLA-A*11:01 (setting [2]); 13300 nM with HLA-A*33:01 (setting [2]).
As for KVLAARLKR, the Kd with HLA-A*68:01 (setting [2]) was found to be 6.07 nM; with HLA-A*03:01 (setting [2]), 633 nM; in the assay with HLA-A*31:01 (setting [2]), 663 nM; with HLA-A*11:01 (setting [2]), 158 nM; with HLA-A*33:01 (setting [2]), 18800 nM.
Take DVHPGEPVVK: the Kd is 57 nM in the assay with HLA-A*68:01 (setting [2]); 15400 nM in the assay with HLA-A*03:01 (setting [2]); at least 32000 nM with HLA-A*31:01 (setting [2]); at least 23700 nM with HLA-A*11:01 (setting [2]); at least 70000 nM with HLA-A*33:01 (setting [2]).
The matching figures for TLILSNKLLY: 4330 nM, 1290 nM, 18000 nM, 1010 nM and 18700 nM.
As for PFTQHLLNIR, the Kd with HLA-A*68:01 (setting [2]) is 224 nM; in the assay with HLA-A*03:01 (setting [2]), at least 22300 nM; with HLA-A*31:01 (setting [2]), 167 nM; with HLA-A*11:01 (setting [2]), 2890 nM; in the assay with HLA-A*33:01 (setting [2]), 6510 nM.
For the sequence LSFSNTIQSY, the equilibrium dissociation constant (Kd) with HLA-A*68:01 (setting [2]) is 4670 nM; with HLA-A*03:01 (setting [2]), 7430 nM; in the assay with HLA-A*31:01 (setting [2]), at least 70000 nM; with HLA-A*11:01 (setting [2]), 1370 nM; with HLA-A*33:01 (setting [2]), at least 70000 nM.
Consider IVPFWITAIY, for which the Kd in the assay with HLA-A*68:01 (setting [4]) was 178 nM; with HLA-A*03:01 (setting [4]), 71 nM; in the assay with HLA-A*31:01 (setting [4]), 1320 nM; in the assay with HLA-A*11:01 (setting [4]) it was 1020 nM; with HLA-A*33:01 (setting [4]) it was 2360 nM.
LLYAAEMVEY: the Kd in the assay with HLA-A*68:01 (setting [2]) came to 9.35 nM; with HLA-A*03:01 (setting [2]), 3.93 nM; with HLA-A*31:01 (setting [2]), 236 nM; with HLA-A*11:01 (setting [2]), 0.576 nM; with HLA-A*33:01 (setting [2]), 17100 nM.
PLFHGGEPIK: the Kd with HLA-A*68:01 (setting [2]) is at least 70200 nM; with HLA-A*03:01 (setting [2]) it was 18300 nM; in the assay with HLA-A*31:01 (setting [2]), at least 70000 nM; with HLA-A*11:01 (setting [2]), at least 28700 nM; with HLA-A*33:01 (setting [2]) it was at least 70000 nM.
Take MLPPCYNFLK: the Kd with HLA-A*68:01 (setting [4]) was 2.61 nM; with HLA-A*03:01 (setting [4]) it was 6.77 nM; with HLA-A*31:01 (setting [4]), 129 nM; in the assay with HLA-A*11:01 (setting [4]), 9.53 nM; with HLA-A*33:01 (setting [4]) it was 138 nM.
On to DILTYNKTSK, for which the Kd was 2970 nM with HLA-A*68:01 (setting [2]); 2320 nM with HLA-A*03:01 (setting [2]); at least 38100 nM with HLA-A*31:01 (setting [2]); at least 21100 nM with HLA-A*11:01 (setting [2]); 1760 nM in the assay with HLA-A*33:01 (setting [2]).
The matching figures for NLEMIDERKY: at least 21400 nM, at least 70100 nM, at least 24200 nM, at least 69800 nM and at least 70000 nM.
As for AISAVYFKAK, the Kd is 2530 nM in the assay with HLA-A*68:01 (setting [2]); 8.04 nM with HLA-A*03:01 (setting [2]); 1640 nM with HLA-A*31:01 (setting [2]); 26 nM with HLA-A*11:01 (setting [2]); at least 70000 nM in the assay with HLA-A*33:01 (setting [2]).

Broadly, the Kd is a measure of binding affinity in units of concentration.

The values are drawn from the Immune Epitope Database (IEDB).
